B1: β-catenin (natural protein, canine (endogenous in MDCK), UniProt B6V8E6 1-781, looked up)
chain: MATQADLMELDMAMEPDRKAAVSHWQQQSYLDSGIHSGATTTAPSLSGKGNPEEEDVDTTQVLYEWEQGFSQSFTQEQVADIDGQYAMTRAQRVRAAMFPETLDEGMQIPSTQFDAAHPTNVQRLAEPSQMLKHAVVNLINYQDDAELATRAIPELTKLLNDEDQVVVNKAAVMVHQLSKKEASRHAIMRSPQMVSAIVRTMQNTNDVETARCTAGTLHNLSHHREGLLAIFKSGGIPALVKMLGSPVDSVLFYAITTLHNLLLHQEGAKMAVRLAGGLQKMVALLNKTNVKFLAITTDCLQILAYGNQESKLIILASGGPQALVNIMRTYTYEKLLWTTSRVLKVLSVCSSNKPAIVEAGGMQALGLHLTDPSQRLVQNCLWTLRNLSDAATKQEGMEGLLGTLVQLLGSDDINVVTCAAGILSNLTCNNYKNKMMVCQVGGIEALVRTVLRAGDREDITEPAICALRHLTSRHQEAEMAQNAVRLHYGLPVVVKLLHPPSHWPLIKATVGLIRNLALCPANHAPLREQGAIPRLVQLLVRAHQDTQRRTSMGGTQQQFVEGVRMEEIVEGCTGALHILARDVHNRIVIRGLNTIPLFVQLLYSPIENIQRVAAGVLCELAQDKEAAEAIEAEGATAPLTELLHSRNEGVATYAAAVLFRMSEDKPQDYKKRLSVELTSSLFRTEPMAWNETADLGLDIGAQGEPLGYRQDDPSYRSFHSGGYGQDALGMDPMMEHEMGGHHPGADYPVDGLPDLGHAQDLMDGLPPGDSNQLAWFDTDL
B2: aPKCλ–myc (myc-tagged aPKCλ) (enzyme, murine, UniProt Q62074 1-595, looked up)
chain: MPTQRDSSTMSHTVACGGGGDHSHQVRVKAYYRGDIMITHFEPSISFEGLCSEVRDMCSFDNEQPFTMKWIDEEGDPCTVSSQLELEEAFRLYELNKDSELLIHVFPCVPERPGMPCPGEDKSIYRRGARRWRKLYCANGHTFQAKRFNRRAHCAICTDRIWGLGRQGYKCINCKLLVHKKCHKLVTIECGRHSLPPEPMMPMDQTMHPDHTQTVIPYNPSSHESLDQVGEEKEAMNTRESGKASSSLGLQDFDLLRVIGRGSYAKVLLVRLKKTDRIYAMKVVKKELVNDDEDIDWVQTEKHVFEQASNHPFLVGLHSCFQTESRLFFVIEYVNGGDLMFHMQRQRKLPEEHARFYSAEISLALNYLHERGIIYRDLKLDNVLLDSEGHIKLTDYGMCKEGLRPGDTTSTFCGTPNYIAPEILRGEDYGFSVDWWALGVLMFEMMAGRSPFDIVGSSDNPDQNTEDYLFQVILEKQIRIPRSLSVKAASVLKSFLNKDPKERLGCHPQTGFADIQGHPFFRNVDWDMMEQKQVVPPFKPNISGEFGLDNFDSQFTNEPVQLTPDDDDIVRKIDQSEFEGFEYINPLLMSAEECV
B3: Par6B (natural protein, canine (endogenous in MDCK), UniProt A0A8I3PSX6 1-370, looked up)
chain: MNRSHRHGAGSGCLGTMEVKSKFGAEFRRFSLERSKPGKFEEFYGLLQHVHKIPNVDVLVGYADIHGDLLPINNDDNYHKAVSTANPLLRIFIQKKEEADYSAFGTDTLIKKKNVLTNVLRPDNHRKKPHIVISMPQDFRPVSSIIDVDILPETHRRVRLYKYGTEKPLGFYIRDGSSVRVTPHGLEKVPGIFISRLVPGGLAQSTGLLAVNDEVLEVNGIEVSGKSLDQVTDMMIANSRNLIITVRPANQRNNVVRNSRTSGSSGQSTDNSLLGYPQQVEPSFEPEDEDSDEDDIIIEDNGVPQQIPKAVPNTESFESLTQIELSFESGQNGFIPSNEVSLAPIASGTNTETRAPDQKLLEEDGTIITL

Tests used:
[1] = molecular target: TMEM47-GFP (murine TMEM47 tagged with GFP) (murine) (UniProt Q9JJG6); assay: co-IP
Sequence of TMEM47-GFP (murine TMEM47 tagged with GFP) (murine) (Q9JJG6 whole entry): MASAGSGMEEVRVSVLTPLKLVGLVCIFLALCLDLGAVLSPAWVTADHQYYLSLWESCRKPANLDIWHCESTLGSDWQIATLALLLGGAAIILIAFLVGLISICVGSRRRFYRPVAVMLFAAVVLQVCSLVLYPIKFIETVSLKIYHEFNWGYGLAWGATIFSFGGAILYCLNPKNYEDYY

[2] = molecular target: TMEM47-GFP (murine TMEM47 tagged with GFP) (murine, UniProt Q9JJG6 1-181); assay: co-IP
Sequence of TMEM47-GFP (murine TMEM47 tagged with GFP) (Q9JJG6 whole entry): as above

Molecule	precipitating fraction [1] [%]	precipitating fraction [2] [%]
α-catenin (natural protein)	< 5	
B1		< 5
B2		< 5
B3		< 5
